Experimental data from patent US20090180995A1, “NOVEL ANTICOAGULANT POLYPEPTIDES AND COMPLEX” (National University of Singapore, priority 2005, published 2009).
Entries after “also recorded” stand apart in the source; their conditions may differ.

Tests used:
FVIIa-sTF = biological target: T1, FVIIa-sTF (Homo sapiens, UniProt P08709); assay: Kinetics of inhibition of FVIIa-sTF amidolytic activity on S-2288; type: biochemical
T1 construct: made in house; host or cells: Saccharomyces cerevisiae (sTF); human plasma (FVIIa)
Protocol: Determination of kinetic constants for substrate hydrolysis—All studies were in assay buffer containing 50 mM Tris-HCl, pH 8.0, containing 150 mM NaCl, 10 mM CaCl2, and 1% BSA at 37° C. The kinetics of hydrolysis of the chromogenic substrate S-2288 by FVIIa-sTF was measured prior to examining the inhibitory effects of individual hemextins and the hemextin AB complex. Reactions were initiated by the addition of S-2288 (0-5 mM) to the individual wells of a 96-well plate containing FVIIa (30 nM) in complex with sTF (100 nM) in a final volume of 180 μl. Initial reaction velocities were measured as a linear increase in the absorbance at 405 nm (A405 nm) over 5 min, with a SPECTRAmax Plus® temperature-controlled microplate spectrophotometer (Molecular Devices, Sunnyvale, Calif.). The Km was derived from the nonlinear regression fit of the determined velocities, the value of which was 2.79 mM.
Kinetics of inhibition—The inhibitory potency of anticoagulant complex was measured over a range of substrate concentrations. Reactions were initiated by the addition of S-2288 to premixed enzyme-cofactor and inhibitor in the wells of a microtiter plate. Reactions with FVIIa-sTF contained 0.0125-0.05 μM of inhibitor complex and 0 to 3 mM of S-2288.
V=Vmax [S]/(1+[I]Ki)/{Km+[S]} (Eq. 1)

FVIIa = biological target: T2, FVIIa (Homo sapiens, UniProt P08709); assay: ITC, binding of hemextin AB complex to FVIIa; conditions: 37° C.
T2 construct: from tissue; host or cells: human plasma
T2 sequence (P08709 61-212 limits assumed): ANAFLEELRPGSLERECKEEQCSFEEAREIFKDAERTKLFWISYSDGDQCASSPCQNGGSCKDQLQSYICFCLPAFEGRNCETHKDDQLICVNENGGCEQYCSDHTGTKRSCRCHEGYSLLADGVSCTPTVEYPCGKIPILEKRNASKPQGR
T2 sequence (P08709 213-466 limits assumed): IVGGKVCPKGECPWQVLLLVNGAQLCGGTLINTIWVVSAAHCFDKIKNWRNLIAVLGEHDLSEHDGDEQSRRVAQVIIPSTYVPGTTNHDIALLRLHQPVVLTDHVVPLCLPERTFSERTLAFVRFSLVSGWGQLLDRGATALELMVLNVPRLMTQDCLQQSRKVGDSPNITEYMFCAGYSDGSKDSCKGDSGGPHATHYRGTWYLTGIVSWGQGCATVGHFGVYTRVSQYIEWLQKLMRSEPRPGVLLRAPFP
Protocol: Isothermal titration calorimetry (ITC) studies—The interaction of anticoagulant hemextin AB complex with FVIIa was monitored with a VP-ITC titration calorimetric system (Microcal Inc., Northampton, Mass.). The instrument was calibrated using the built-in electrical calibration check. FVIIa (10 μM) in 50 mM Tris-HCl buffer and 10 mM CaCl2 (pH 7.4) in the calorimetric cell was titrated with reconstituted anticoagulant complex (0.2 mM) dissolved in the same buffer in a 250 μl injection syringe, with continual stirring at 300 rpm at 37° C. All the protein solutions were filtered and degassed prior to titration. […] The total heat content Q of the solution (determined relative to zero for the unliganded species) contained in the active cell volume, Vo, was calculated according to the following Equation 2, where K is the binding affinity constant, n is the number of sites, ΔH is the enthalpy of ligand binding, Mt and Xt is the bulk concentration of macromolecule and ligand, respectively, for the binding X+M ? […]
The change in heat (ΔQ) measured between the completions of two consecutive injections is corrected for dilution of the protein and ligand in the cell according to standard Marquardt methods. The free energy change (AG) during the interaction was calculated by using the relationship: ΔG=ΔH−TΔS=[…], where T is the absolute temperature and R is the universal gas constant.

[1] = tested on: hemextin A-hemextin B interaction; assay: ITC, hemextin A-hemextin B interaction; type: binding, Hemachatus haemachatus

T1 sequence (P13726 33-251 partner limits assumed, one chain of several): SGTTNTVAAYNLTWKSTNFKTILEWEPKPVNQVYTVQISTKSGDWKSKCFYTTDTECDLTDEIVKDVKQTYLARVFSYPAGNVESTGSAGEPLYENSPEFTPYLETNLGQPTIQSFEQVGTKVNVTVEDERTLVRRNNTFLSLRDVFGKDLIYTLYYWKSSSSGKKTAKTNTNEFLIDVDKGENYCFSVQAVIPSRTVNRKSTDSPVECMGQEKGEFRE

B1: hemextin AB complex: synergistic 1:1 tetrameric complex of hemextin A and hemextin B, reconstituted from equimolar proteins (protein)
chain 1: LKCKNKLVPFLSKTCPEGKNLCYKMTMLKMPKIPIKRGCTDACPKSSLLVKVVCCNKDKCN
chain 2: LKCKNKVVPFLKCKNKVVPFLCYKMTLKKVPKIPIKRGCTDACPKSSLLVNVMCCKTDKCN
- nature of inhibition of FVIIa-sTF activity (FVIIa-sTF; S-2288, Lineweaver-Burk plots): non-competitively; also recorded: non-competitive inhibitor
- Ki (FVIIa-sTF; S-2288, secondary plot): 25 nM
- Kcat (FVIIa-sTF; [Inhibitor] 0.0125 μM): 40.93 s⁻¹
- Vmax (FVIIa-sTF; [Inhibitor] 0.0125 μM): 7.37E−05
- Kcat (FVIIa-sTF; [Inhibitor] 0.0250 μM): 30.58 s⁻¹
- Vmax (FVIIa-sTF; [Inhibitor] 0.0250 μM): 5.51E−05
- Kcat (FVIIa-sTF; [Inhibitor] 0.05 μM): 20.87 s⁻¹
- Vmax (FVIIa-sTF; [Inhibitor] 0.05 μM): 3.75E−05
- ΔG of binding to FVIIa (FVIIa): -7.543 kcal/M
- K for the binding to FVIIa (FVIIa; 50 mM Tris-HCl, 10 mM CaCl2 (pH 7.4)): 411000 M⁻¹
- Ka ([1]; 10 ° C., 50 mM Tris (pH 7.4)): 640000 M⁻¹
- Ka ([1]; 25 ° C., 50 mM Tris (pH 7.4)): 2.07e+06 M⁻¹
- Ka ([1]; 37 ° C., 50 mM Tris (pH 7.4)): 2.23e+06 M⁻¹
- Ka ([1]; 37 ° C., 50 mM Tris (pH 7.4) + 35 mM NaCl): 630000 M⁻¹
- Ka ([1]; 37 ° C., 50 mM Tris (pH 7.4) + 75 mM NaCl): 330000 M⁻¹
- Ka ([1]; 37 ° C., 50 mM Tris (pH 7.4) + 100 mM NaCl): 20000 M⁻¹
- Ka ([1]; 37 ° C., 50 mM Tris (pH 7.4) + 125 mM glycerol): 320000 M⁻¹
- Ka ([1]; 37 ° C., 50 mM Tris (pH 7.4) + 150 mM NaCl): 2000 M⁻¹
- Ka ([1]; 37 ° C., 50 mM Tris (pH 7.4) + 175 mM glycerol): 200000 M⁻¹
- Ka ([1]; 37 ° C., 50 mM Tris (pH 7.4) + 250 mM glycerol): 50000 M⁻¹
- Ka ([1]; 45 ° C., 50 mM Tris (pH 7.4)): 1.97e+06 M⁻¹
- binding constant (Ka), hemextin AB complex formation ([1]; ITC): 2.23e+06 M⁻¹
